Assay results published in patent US20250257133A1 (ADAGENE PTE, published 2025).

T1: B7H3 on MDA-MB-231 cells (UniProt Q5ZPR3 29-534, limits assumed)
T1 construct: whole, on cells
T1 sequence (looked up): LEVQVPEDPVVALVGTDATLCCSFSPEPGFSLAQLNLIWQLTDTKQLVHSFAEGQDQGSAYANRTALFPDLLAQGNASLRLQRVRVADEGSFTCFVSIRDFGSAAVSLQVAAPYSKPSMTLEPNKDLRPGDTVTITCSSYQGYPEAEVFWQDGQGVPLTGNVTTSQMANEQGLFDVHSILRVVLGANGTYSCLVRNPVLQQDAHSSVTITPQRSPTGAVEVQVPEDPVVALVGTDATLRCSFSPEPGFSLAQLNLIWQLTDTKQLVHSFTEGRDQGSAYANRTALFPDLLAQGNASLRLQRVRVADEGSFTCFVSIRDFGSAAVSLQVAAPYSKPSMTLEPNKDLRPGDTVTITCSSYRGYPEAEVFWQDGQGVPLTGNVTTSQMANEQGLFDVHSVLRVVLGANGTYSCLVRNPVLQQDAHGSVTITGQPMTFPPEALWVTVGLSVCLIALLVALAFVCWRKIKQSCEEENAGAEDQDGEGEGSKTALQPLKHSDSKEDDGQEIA


Columns and labels:
[1] = biological target: T2, Human CD28 (ELISAs of Examples 4 and 13) (human, UniProt P10747 19-152, limits assumed); test: ELISA
Mouse CD28 on cells = biological target: T3, Mouse CD28 on cells (mouse, UniProt P31041 20-218); test: flow cytometry on mouse T cells, median fluorescence intensity; drawn table; design: AUC: unit not given beside the values
T3 construct: also called CD28 on mouse T cells
T3 sequence (P31041 20-218 limits assumed): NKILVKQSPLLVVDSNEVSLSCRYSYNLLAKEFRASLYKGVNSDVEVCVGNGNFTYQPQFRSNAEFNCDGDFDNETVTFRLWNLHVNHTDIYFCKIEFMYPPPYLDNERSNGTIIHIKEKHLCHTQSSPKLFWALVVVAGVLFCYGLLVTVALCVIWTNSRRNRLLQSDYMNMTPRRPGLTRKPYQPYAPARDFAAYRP

[2] = biological target: T2, Human CD28 (ELISAs of Examples 4 and 13); test: ELISA, blocking of CD28-CD80
[3] = biological target: T4, His-tagged human CTLA4 protein (human, UniProt P16410 36-161, limits assumed); test: Octet BLI, mAb captured;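 note: Anti-human Fc biosensors captured the antibodies, then His-tagged protein analytes at 100 nM associated for 300 s and dissociated for 300 s, fitted by a 1:1 Langmuir model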
T4 construct: not shown: His tag
T4 sequence (P16410 36-161 limits assumed): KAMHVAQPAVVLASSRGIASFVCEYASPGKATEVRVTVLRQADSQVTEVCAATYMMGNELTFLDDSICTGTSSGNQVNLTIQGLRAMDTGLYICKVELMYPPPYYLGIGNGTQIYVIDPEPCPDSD

[4] = biological target: T5, His-tagged human CD28 protein (human, UniProt P10747 19-152); test: Octet BLI, mAb captured;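 note: Anti-human Fc biosensors captured the antibodies, then His-tagged protein analytes at 100 nM associated for 300 s and dissociated for 300 s, fitted by a 1:1 Langmuir model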
T5 construct: not shown: His tag

[5] = biological target: T6, Recombinant human CD28-Fc (human, UniProt P10747 19-152); test: ELISA, coated CD28-Fc
T6 construct: not shown: Fc part

[6] = biological target: T7, Recombinant mouse CD28-Fc (mouse, UniProt P31041 20-150); test: ELISA, coated CD28-Fc
T7 construct: not shown: Fc part
T7 sequence (P31041 20-150 limits assumed): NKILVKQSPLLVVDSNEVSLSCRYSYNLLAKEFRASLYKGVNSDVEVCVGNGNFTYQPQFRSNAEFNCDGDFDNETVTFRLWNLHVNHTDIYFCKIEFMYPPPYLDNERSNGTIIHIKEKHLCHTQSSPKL

Human CD28 on cells = biological target: T8, Human CD28 on cells (human, UniProt P10747 19-220); test: flow cytometry, Jurkat cells
T8 construct: Jurkat E6-1 cells, primary human T cells, or transfected HEK293F cells; also called CD28 on Jurkat cells; CD28 on human CD3+ T cells
Experimental: Next, the cells were washed twice with DPBS and further incubated with a APC-anti-human IgG Fc secondary antibody (1 μg/mL, 100 μL/well, Biolegend) for 30 minutes at 4° C. Finally, the cells were washed twice with DPBS and suspended in FACS buffer for flow cytometry analysis. For analysis, the Mean Fluorescence Intensity (MFI) values versus concentrations were plotted using FlowJo 10 software (FlowJo LLC) and the data were further fitted with four-parameter non-linear regression to obtain EC₅₀ values by GraphPad Prism version 7 for Windows, GraphPad Software, La Jolla California USA, www.graphpad.com.

B7H3 on MDA-MB-231 cells = biological target: T1, B7H3 on MDA-MB-231 cells; test: flow cytometry, MDA-MB-231 cells
Experimental: An isotype antibody was included as a negative control.
MDA-MB-231 cells were cultured and seeded in 96-well plates at 1.0×10⁵ cells/well and incubated with serially diluted test BsAbs for 60 minutes at 4° C. in 2% FBS/RPMI1640 buffer. Next, the cells were washed twice with DPBS and further incubated with secondary APC-anti-human IgG Fe antibody (1:400 dilution) for 30 minutes at 4° C. Finally, the cells were washed twice with DPBS and resuspended in FACS buffer for flow cytometry analysis. For analysis, the MFI values versus concentrations were plotted using FlowJo 10 software (FlowJo LLC) and the data were further fitted with four-parameter non-linear regression to obtain EC₅₀ values by GraphPad Prism version 7 for Windows.

Row | EC50 [1] [nM] | AUC (Mouse CD28 on cells) | Max MFI (Mouse CD28 on cells) | IC50 [2] [nM] | Kd [3] [nM] | koff [3] [s⁻¹] | kon [3] [M⁻¹ s⁻¹] | Kd [4] [nM] | koff [4] [s⁻¹] | kon [4] [M⁻¹ s⁻¹] | EC50 [5] [nM] | EC50 [6] [nM] | EC50 (Human CD28 on cells) [nM] | binding result [3] | EC50 (B7H3 on MDA-MB-231 cells) [nM] | Binder
1 | 36.4 | 549 | 364 |  |  |  |  |  |  |  |  |  |  |  |  | TY29021 (bispecific antibody, human IgG1, kappa, N297A, anti-B7H3 Fab x CD28 scFv WT (VH-VL)-Fc; also called TY29021 (WT)) light: DIQLTQSPSSLSASVGDRVTITCRASQSIRKYLNWYQQKPGKAPKLLIYAASTLQSGVPSRFSGSGSGTDFTLTISSLQPEDFATYFCSQGTHVPFTFGQGTKVEIKRTVAAPSVFIFPPSDEQLKSGTASVVCLLNNFYPREAKVQWKVDNALQSGNSQESVTEQDSKDSTYSLSSTLTLSKADYEKHKVYACEVTHQGLSSPVTKSFNRGEC heavy: EVQLVESGGGLVQPGGSLRLSCAASGFTFSGYGIHWVRQAPGKGLEWIGWISPSGGDTKYAQKFQGRVTISRDNSKNTLYLQLNSLRAEDTAVYYCARGGTVVYFDYWGQGTLVTVSSASTKGPSVFPLAPSSKSTSGGTAALGCLVKDYFPEPVTVSWNSGALTSGVHTFPAVLQSSGLYSLSSVVTVPSSSLGTQTYICNVNHKPSNTKVDKKVEPKSCDKTHTCPPCPAPELLGGPSVFLFPPKPKDTLMISRTPEVTCVVVDVSHEDPEVKFNWYVDGVEVHNAKTKPREEQYASTYRVVSVLTVLHQDWLNGKEYKCKVSNKALPAPIEKTISKAKGQPREPQVYTLPPSRKKLTKNQVKLTCLVKGFYPSDIAVEWESNGQPENNYKTTPPVLDCDGSFFLYSKLTVDKSRWQQGNVFSCSVMHEALHNHYTQKSLSLSPGK EVQLVESGGGLVQPGGSLRLSCAASGFSLSTGGVGVSWIRQAPGKGLEWIGEIYHSGSTYYSPSLKSRVTISRDNSKNTLYLQLNSLRAEDTAVYYCARYEYYYYDFDYWGQGTLVTVSSGGGGSGGGGSGGGGSGGGGSDIQLTQSPSSLSASVGDRVTITCRASQSVDFHGISFLHWYQQKPGKAPKLLIYAASSLQSGVPSRFSGSGSGTDFTLTISSLQPEDFATYYCQQSYRSPRTFGQGTKVEIKEPKSSDKTHTCPPCPAPELLGGPSVFLFPPKPKDTLMISRTPEVTCVVVDVSHEDPEVKFNWYVDGVEVHNAKTKPREEQYASTYRVVSVLTVLHQDWLNGKEYKCKVSNKALPAPIEKTISKAKGQPREPQVYTDPPSRDELTKNQVSLTCLVDGFYPSDIAVEWESNGQPENCYKTTPPVLDSDGSFFLYSKLTVDKSRWQQGNVFSCSVMHEALHNHYTQDSLSLSPGK
2 |  |  |  | 0.42 | 6.63 | 0.00311 | 469000 | 2.68 | 0.00019 | 70800 | 1.34 | > 44.4 | 0.97 |  |  | TY24859 (antibody, human IgG4 S228P, kappa, V domains shown, hIgG4/S241P) VH: EVQLVESGGGLVQPGGSLRLSCAASGFSLSTGGVGVGWIRQAPGKGLEWIGEIYHSGSTYYSPSLKSRVTISRDNSKNTLYLQLNSLRAEDTAVYYCARYGYSYYALDYWGQGTLVTVSS VL: DIQLTQSPSSLSASVGDRVTITCSASSSVGYVQWYQQKPGKAPKLLIYDASNLETGVPSRFSGSGSGTDFTLTISSLQPEDFATYYCQQSYTSPRTFGQGTKVEIKR
3 |  |  |  |  |  |  |  | 6.66 | 0.000421 | 63200 |  |  | 0.78 | no binding (tested: 100 nM CTLA4) |  | TY24860 (antibody, human IgG4 S228P, kappa, V domains shown, hIgG4/S241P) VH: EVQLVESGGGLVQPGGSLRLSCAASGFSLSTSGVGVSWIRQAPGKGLEWIGEIYHSGSTYYSPSLKSRVTISRDNSKNTLYLQLNSLRAEDTAVYYCARKGYYYYAFDYWGPGTLVTVSS VL: DIQLTQSPSSLSASVGDRVTITCRASQDIGSFLAWYQQKPGKAPKLLIYAASSLQSGVPSRFSGSGSGTDFTLTISSLQPEDFATYYCQQSYRSPPTFGQGTKVEIKR
4 |  |  |  | 0.27 | 7.64 | 0.004 | 524000 | < 0.001 | < 1e-07 | 58000 | 0.57 | > 1.65 | 0.7 |  |  | TY24866 (antibody, human IgG4 S228P, kappa, V domains shown, hIgG4/S241P) VH: EVQLVESGGGLVQPGGSLRLSCAASGFSLSTGGVGVGWIRQAPGKGLEWIGEIYHSGSTYYPPSLKSRVTISRDNSKNTLYLQLNSLRAEDTAVYYCARYEYSSYGLDYWGQGTLVTVSS VL: DIQLTQSPSSLSASVGDRVTITCRASQDIRKFLAWYQQKPGKAPKLLIYDASSLESGVPSRFSGSGSGTDFTLTISSLQPEDFATYYCQQSYRSPRTFGQGTKVEIKR
5 |  |  |  | 0.55 | 1.2 | 0.000454 | 379000 | 2.73 | 0.000128 | 46800 | 0.87 | > 14.8 | 1.07 |  |  | TY24869 (antibody, human IgG4 S228P, kappa, V domains shown, hIgG4/S241P) VH: QVQLVQSGAEVKKPGSSVKVSCKASGYSISSGYHWGWIRQAPGQGLEWIGAIYHSGSTYYSPSLKSRVTITADKSTSTAYMELSSLRSEDTAVYYCARSGLVYYAFDYWGQGTLVTVSS VL: DIQLTQSPSSLSASVGDRVTITCRASQGIGSYLAWYQQKPGKAPKLLIYDASSLESGVPSRFSGSGSGTDFTLTISSLQPEDFATYYCQQYSTSPLTFGQGTKVEIKR
6 |  |  |  |  | 13.2 | 0.00311 | 235000 | 7.19 | 0.000193 | 26900 |  |  | 0.79 |  |  | TY24877 (antibody, human IgG4 S228P, kappa, V domains shown, hIgG4/S241P) VH: QVQLVQSGAEVKKPGSSVKVSCKASGYTFTNYGIHWVRQAPGQGLEWIGEIYHSGSTYYSPSLKSRVTITADKSTSTAYMELSSLRSEDTAVYYCARGPLSYYALDYWGQGTLVTVSS VL: DIQLTQSPSSLSASVGDRVTITCRASQSIRRFLNWYQQKPGKAPKLLIYDASSLESGVPSRFSGSGSGTDFTLTISSLQPEDFATYYCQQYYRSPITFGQGTKVEIKR
7 |  |  |  | 0.54 | 4.28 | 0.000585 | 137000 | < 0.001 | < 1e-07 | 32500 | 1.02 | 3.93 | 0.38 |  |  | TY24876 (antibody, human IgG4 S228P, kappa, V domains shown, hIgG4/S241P) VH: QVQLVQSGAEVKKPGSSVKVSCKASGYSITSGYHWGWIRQAPGQGLEWIGAIYHSGSTYYSPSLKSRVTITADKSTSTAYMELSSLRSEDTAVYYCARGPLSYYAFDYWGQGTLVTVSS VL: DIQLTQSPSSLSASVGDRVTITCRASQSVSRYLAWYQQKPGKAPKLLIYDASNRATGIPSRFSGSGSGTDFTLTISSLQPEDFATYYCQQYYRSPITFGQGTKVEIKR
8 |  |  |  | 0.42 | 7.17 | 0.00313 | 437000 | < 0.001 | < 1e-07 | 59400 | 0.9 | > 1.65 | 1.17 |  |  | TY24879 (antibody, human IgG4 S228P, kappa, V domains shown, hIgG4/S241P) VH: QVQLVQSGAEVKKPGSSVKVSCKASGYSISSGYHWGWIRQAPGQGLEWIGSIYHSGSTYYNPSLKSRVTITADKSTSTAYMELSSLRSEDTAVYYCARSGLRYYAFDVWGQGTLVTVSS VL: DIQLTQSPSSLSASVGDRVTITCAASQDVSTAVAWYQQKPGKAPKLLIYAASSLQSGVPSRFSGSGSGTDFTLTISSLQPEDFATYYCQQSYRSPITFGQGTKVEIKR
9 |  |  |  | 0.28 | 6.36 | 0.00408 | 641000 | 2.42 | 0.000166 | 68400 | 1.02 | > 44.4 | 1.09 |  |  | TY24884 (antibody, human IgG4 S228P, kappa, V domains shown, hIgG4/S241P) VH: QVQLVQSGAEVKKPGSSVKVSCKASGFTFSGYAIHWVRQAPGQGLEWIGQIYHSGSTYYNPSLKSRVTITADKSTSTAYMELSSLRSEDTAVYYCARSGYGGYDFDYWGQGTLVTVSS VL: DIQLTQSPSSLSASVGDRVTITCRASQSVPRRYLAWYQQKPGKAPKLLIYAASTLQSGVPSRFSGSGSGTDFTLTISSLQPEDFATYYCQQYYRSPITFGQGTKVEIKR
10 |  |  |  |  |  |  |  |  |  |  |  |  |  |  | 0.453 | TY21601 (antibody, V domains shown, also called parental anti-B7H3 mAb; B7H3 IgG) VH: EVQLVESGGGLVQPGGSLRLSCAASGFTFSGYGIHWVRQAPGKGLEWIGWISPSGGDTKYAQKFQGRVTISRDNSKNTLYLQLNSLRAEDTAVYYCARGGTVVYFDYWGQGTLVTVSS VL: DIQLTQSPSSLSASVGDRVTITCRASQSIRKYLNWYQQKPGKAPKLLIYAASTLQSGVPSRFSGSGSGTDFTLTISSLQPEDFATYFCSQGTHVPFTFGQGTKVEIK
11 |  |  |  | 0.35 | 0.969 | 0.00041 | 423000 | 4.21 | 0.000411 | 97500 | 1.06 | > 14.8 | 0.39 |  |  | TY24878 (antibody, human IgG4 S228P, kappa, V domains shown, hIgG4/S241P) VH: QVQLVQSGAEVKKPGSSVKVSCKASGFSLSTGGVAVAWIRQAPGQGLEWIGQIYYSGSTYYNPSLKSRVTITADKSTSTAYMELSSLRSEDTAVYYCARSSAHYYFDVWGQGTLVTVSS VL: DIQLTQSPSSLSASVGDRVTITCRASESVDFQGISFLDWYQQKPGKAPKLLIYDASSLESGVPSRFSGSGSGTDFTLTISSLQPEDFATYYCQQSYRSPITFGQGTKVEIKR
